# Assay results published in the DeepSol protein solubility set.
# Assay: soluble on expression in E. coli; label from the status in PepcDB or PDB records
row,Sequence,soluble on expression in E. coli
1,MDNLMLNNKIYLEGTVVSELEFSHEMYGEGFYTFNLEVMRLSDSKDLLNITVSERLITTMDLKIGTEIVVEGQLRSYNKFIDGNNKLILTVFARNIEYCEERSKNPNEIFLDGFICKEPVYRTTPFGREIADLLLAVNRSYNKSDYIPTIAWGRNSRFCKTLEVGDNIRIWGRLQSREYQKKISETEVVKKIAYEVSISKMEKVSVESEQNESGEEISLEHHHHHH,not soluble
2,MDPELQAIREARLAQLKNNSGGTNGDRNSGANNGGGENSAPVGAAIANFLEPQALERLSRVALVRRDRAQAVETYLKKLIATNNVTHKITEAEIVSILNGIAKQQNSQNNSKIIFERKDFSEDLNSFDKQNAKN,not soluble
3,MDPIKQEISEYFKDWMELYKKNAIDEMTYKGYEQTLKYLKTYMPNVLISEITASSYQRALNKFAETHAKASTKGFHTRVRASIQPLIEEGRLQKDFTTRAVVKGLEHHHHHH,soluble
4,MDPSVTLWQFLLQLLREQGNGHIISWTSRDGGEFKLVDAEEVARLWGLRKNKTNMNYDKLSRALRYYYDKNIIRKVSGQKFVYKFVSYPEVAGC,soluble
5,MDQALYSLETRFEQFQRYEQIFGFLFDLKKLQSASDDSLMASCTNLKDALTHGTHSDILASDLFYELKILREALPKEVRRPIEVLDFLQKVEGCYPNSWIAYQVLLTIPVSVASAERSFSKLKLIKSYLRSSMSQERLSDLAILSIERALVREVDFERLANDFVGKKGRRITL,soluble
6,MDRLRFDHRVITENGNKQPLVMVINLSSISMAMMSYDFNSKPLLIFWETTKACGLKCEHCRASAILDALPGEMTFDQSINFLSHIKEFGKPYPIVILTGGDMLRKHRIWDIMDYLRSQEIPFSVSPAVTDLLTHEAILKFKEFGVSSVSISLDGMREVHEKVRGVAGVYDDTVKAIEDLISTGISMQINTVVMRSTVHDLPHVLKLIIDKGVKVWEVFFLIKTGRGIDREDLSPEEYENVNKFLLFATGYGIRIRTVESPIYRRITMQYGKNGLIKGGRLFDELREETVSLIGNPSKEYASSVIPTRDGFGIIFVGHDGEVYPSGFLPYSVGNVKDRSIVDIYRNSDLLNSIRNPDNLHGKCGLCEYRKVCGGSRARAFAYTGDPFGTDPSCIYEPSAVPE,not soluble
7,MDRPLLIFSGQSNRPLAQAIAEALGLPLGKSTTLRFANDNLFVRYEESLREGDVFIVQSFVPPVQDHLMELLMMVDAAKGASAARVTAVIPYFSYARSDKKDAPRISITARLIADLLQTAGADRVLTMTLHSPQVHGFFKIPVDHLSAEPVIANYFATRVDLENAVVVAPDAGDLKRASALARRLGLPLAFIDKERVSDTEVRVRMLVGEVEGKTALIVDDEISTAGSLVEAVEALMQAGAKEVYAAATHGVYVGPALDRIAKSPVKEVAATDTCPPKEGPKLRTLTVAPLFAEAIWRIHRGESVSSLFT,soluble
8,MDRRTFLKSASMKGTAIVTASAVGTEMLHAAESIGASDVASGKRNAPKAKRLPEDLQELVKDSSLLRKPDNLTVACYTFPNYHASALHDKIYGPGWTEYNLVRSARPWFQGHAQPRGPLLGEMDESKPGTWEKYNELCKQSGIDVLIWDWYWYNNEPCLHEALENGFLRASNRNDVKFACMWTNHPWYVLYPTLLPNGYKAYPPSFAPADGSLKECWQSLSYIISRYCHLENYWRIDDKPVVCIWDPNRLEKNIGVDGVKQLFAELTEFARKLGHKGLHFHSSGFYSPNSKEVGYNTAGSYNPFTWVADNYQPKNIELPDYGVAAADVAFKLWPKHHDDFAIPYLPSLSPGWDSTPRYIPPVSRPDQPNRDAWPNCVILDNENPASFKALVQSAFAYLNKHKDVPPILTIACFNEWTEGHYLLPDNRFGYGMLDALAEAVGKSDNHQIHGFFLEHHHHHH,not soluble
9,MDRVALKPFRRIAVILLAGAVIATSTSCSRDERKKEEEKHLESMMSILVQVQKNLGRIRQKEAVVVRLSSDVEGRKPKSAEQIGREINTNIRFIDSTLSASKNLVATLEKQNHESQYRIAALDRMTGQLKGELDKKELELGAMKREIAKLNRQIARLTNTVDVMDEAISDQEDQMVKAYYVVGTVDQLVSKGILVPPGPFSRFFGMRPVLANDFDLRPFRQVDITETKDIYFDKPVSRLHVITPHTKGSYELVGGKTSSLLLIRNEAEFWKKSRCLVIVVE,not soluble
10,MDSEKIKIFTRNYKGSLIMSKRSPKSVSEKLEIVLLRLEEGKSLSWLTRNQGISKDTLSNWVRKYKEAGVDGLEESRQWKKYSKELKEQAVSDYLNGLGSLKDLTKKYGISDPYVLRSWIKSYTSGKELKATSKGMRRMKQGRKTTFEERIEIVNFTLAHEKDYQGAVEKYGVSYQQIYSWVRKFEKDGSNGLLDRRGKGLTSKPNLTPEEELRLKIKQQEERIKYLEMENGLLKKLEEIKRRNRRLEHHHHHH,soluble
11,MDSGDFSPMQSNFSLGFMSFEDIPEDARTTEMIDKIVFEEDKEYDHTQDSFRYGRVTTGVSYNLVTGKIPKTVFEQVKAKDDENDNVEFEMEHLEDKETAHKTQTFDELYESQMPKYFDYQSNFSDVNGIWTLLFDQNHYEKMSTFELQAAICAALNSKHFMMICVGIDAFNAVTGVEMSAKDRVVFRMALTRAVAGEFQPPLVKVAPKQLTGVSPMKRDISEVTSSIDVLFVPVIGVTDEVENNRFLIVVRVKGT,not soluble
12,MDSLEKIKEEVISCKKCKLWQFRTNAVPGEGYPKAEIMFVGEAPGENEDKEGRPFVGAAGKLLTQMIKEILGLERDQVFITNVVKCRPPNNRDPEEDEITACSPYLDRQIDIIMPKIIVTLGRHSTKYIFSKMGENFSSITKVRGKSYVWKYKEKEIIVFPTYHPAAALYNPNLRKILEEDFKKIRELAITPKRYTIDYFLGGKNRSWDKREKSDSNSGK,soluble
13,MDSLQKTTMIDLLLRSDKRRKILLFLKEGPKNIEEITALLGSSCTAVLPQMKKLIEKGLVRQENKIYRLSTVGMIVTEKLVPLLGTIEVFENNLEYWAQKDLTGIPAFLRLKLEMLSQYEVIEPQLNRMFEPPEEFINSLKKSTEIMYFSSFFQPCFSGFDQDFLKKRTDSTFIFTKNFFERISSPHSEEYDELLLPERANLYVYDGISSLVSLTVTERFMALMLLNKKGKLDQNLLISSESEAIEWGKELFMYYREISKKIYGDKADRLLSEKIIPPGKKSGYGTGSDLLQISCLRKTKYKMAAALEHHHHHH,not soluble
14,MDSQKFIDLCKKHVVDFANSQLDYTDQKKISESDIYVVWLAKTLQNNKALLSTNLFDGMYYEVTFNGDKNELYFDAYKKWRNIRFDVTEGGDQNG,not soluble
15,MDSWYPSKELIEACLKKGFHVIAMLKTNRILYPKGIAVQAKQFARYLEPRDTRLVTVGNERYRVYRYEGALNGLDDAVVLLTWKADQPMTPEHLHGVLSTDRELSDEDILRYYAQRWSIECFFRQVKDQLKLDGYRVRHIRAVKRYWVTVLLACVYSIAESQQDISAGLNLLRTRKGHSLIEFIYDAAKQDIPIDVVKKQLHVA,not soluble
16,MDTEMLIDKYQLNDSEAAVLRFMDKNRDCLKSLGIREVAKASYVSTTAIINMAKKIGYSGYSELVFAYGNKHSSISFPENFSNEEKDEFIRLLSRYREKRIMVLGSGFSQNIANHFSEMLNLYGFRATANSHLEFLRENVEKDVLIFIVSNSGDTLRLAELVKLAKNHHIDLIAFVGEKKSKIGQLATLTISTETYNPQVVSEYQPNLFFGTALNQFELLLSEALKSIFI,not soluble
17,MDTGNNNNLPTLLKCNFPPYGKDYPGGFATGRFSDGRVPSDLIAEKLGLAKTLPAYMNPYLKPEDLLKGVTFASGGTGYDPLTAKIMSVISVWDQLINFKEYISKIKRHFGEEKAKDILEHSFFLVVSSSNDLAHTYLAQTHRYDRTSYANFLADSAVHFVRELHKLGARKIGVFSAVPVGCVPLQRTVFGDKELDGVILYINVYDTLFDMIQHPKKYGFEVADRGCCGKGLLAISYLCNSLNPFTCSNSSAYIFWDSYHPSERAYQVIVDNLLDKYLSKVY,soluble
18,MDTLAFINRALVEEGYSLKDIKLVLITDFEPSSVEAIRRLLAVNQGVSFIGRKYVKEVLEKFGLRNVRFRAVEEIPSLEFKLPESGTVKVLPFRNSPQEASAGYLLEEERILFSGKFLGSFGEKGDTIQIFHRVFFPCRNILDYNVGLLESIGEEFEVFPFYGEKQKLSAKTLKEYFNYTVKGSVLEREVILGLVNGVLLNLSDEERENLLSSIGYLAEVDDKVIVDFYTEPNLFYEEFVNTLPDAVKSKEEFYRIVEKLLEHNFYVPLRAV,not soluble
19,MDTSLIRELAELALAGSGQHCHEEALCIAEWLERLGQDEAARLIRISSLANQGRYQEALAFAHGNPWPALEPWFALCEWHLGLGAALDRRLAGLGGSSDPALADFAAGMRAQVRT,soluble
20,MDTSLPSAILNNMVTATLILDDGLAIRYANPAAELLFSQSAKRIVEQSLSQLIQHASLDLALLTQPLQSGQSITDSDVTFVVDGRPLMLEVTVSPITWQRQLMLLVEMRKIDQQRRLTQELNQHAQQQAAKLLVRGLAHEIKNPLGGLRGAAQLLEKMLPDPSLTEYTHIIIEQADRLRALVDRLLGPQKPGK,not soluble
21,MDTTEFDEIRPYNDEELPQIFEELIADPAFQKAATDAIPNVPFELLAQKIRACKSKLDFQETFCYGILWKIAADHTDGLTLDHTAVPDKSKAYTYVSNHRDIILDSGFLSILLIDQGMDTVEIAIGDNLLVYPWIKKLVRVNKSFIVQRALTMRQMLESSARMSRYMHYTINEKNQSIWIAQREGRAKDSNDRTQDSVLKMLAMGGEGDLIDRLMEMNIAPLAISYEYDPCDFLKAQEFQLKRDIEGYKKTTQDDLISMQTGLFGYKGKVHFQTAPCINDRLAQLDRSLPKQELFSSISACIDQRIHSNYRIYSGNYVAYDLLKGTSEFAGHYTPEEKQRFVTYIEQQLGKIKIPNKDEDFLRGKLLLMYANPLVNYLAACQ,not soluble
22,MDVEPIFCAEQIVIPHNLADILKAYTKEVIRRQPTDLIAFSAKYFTNLANVASGVSNSSAPAKEQLRQVYTRGGSGGATLTESQVTGLCQQAGIADAVVAKVMEVGAFTPAAVDLSKFVFLCLAMSCEDFNRVCMGVFDVFSDNGSLPAQDLLTLIAHLGPDMDPEVTPAFLDAVAAELPAGGGAVTYMELCEAPSLKPKLGLS,not soluble
23,MDVEVKNKANRRHVGHNLQKIRVYFGMKQEALAADLGVNQQVISKIEKQEEIEEGLLNQIASVLGISAEVIKDFDVEKAIYNINNIRDNTFEQGATSIAQQFNPLDKIVELYERLLQSEREKIELLKKR,not soluble
24,MDVLVTAGGTSEPIDNVRSITNHSSGGLGKAIAESFLAAGHTVTYVTTKHALRPTQQLDLSIKEIETTVELATTLEQLFAEKQFDAIVHAMAVSDFTTETAQTEEQFIDSFAQQLSEQTLPKTKEALVTIVQNTLNQIADIPQTATKISSDTDRLLIFLKKNPKVIQMIRDKQPQTVLVGFKLLVNVSQEELVQVAQAALVKNRCDFVLANDLMNVHETEHKGLLINETGIVQEAYSKQGIGSMIVKNVEKKWREQQ,not soluble
25,MDVQKKAQMVIEEVKKAIVGKDNVLKLVLATILADGHILIEDLPGLAKTLMAKSFAKALGLEFKRVQFTPDLLPSDILGVNVFNQKTLEFEFKKGPVFTNILLADEINRAPPKTQSALLEAMQERQVTIEGVTYKLPKPFIVIATQNPIEQEGTYPLPEAQLDRFLVRLRMGYPSKDEEKEILRRRIERKQDEVEIETVLSPKDVLKMQREVEDVYVSDAIIEYITSLVWATREDKRDIEIGVSPRGSLALLKLSRAYAAIEGRDYVIPDDVKAVAIPALSHRIILKRELWYTRVSQESVIEKILERVPVPKFE,soluble
